According to article PMC3695516:

What was measured:
[1] = biological target: T1, chimp FOXP2 (truncated, WT) (chimpanzee, UniProt Q8MJA0 215-716); assay: MITOMI
T1 sequence: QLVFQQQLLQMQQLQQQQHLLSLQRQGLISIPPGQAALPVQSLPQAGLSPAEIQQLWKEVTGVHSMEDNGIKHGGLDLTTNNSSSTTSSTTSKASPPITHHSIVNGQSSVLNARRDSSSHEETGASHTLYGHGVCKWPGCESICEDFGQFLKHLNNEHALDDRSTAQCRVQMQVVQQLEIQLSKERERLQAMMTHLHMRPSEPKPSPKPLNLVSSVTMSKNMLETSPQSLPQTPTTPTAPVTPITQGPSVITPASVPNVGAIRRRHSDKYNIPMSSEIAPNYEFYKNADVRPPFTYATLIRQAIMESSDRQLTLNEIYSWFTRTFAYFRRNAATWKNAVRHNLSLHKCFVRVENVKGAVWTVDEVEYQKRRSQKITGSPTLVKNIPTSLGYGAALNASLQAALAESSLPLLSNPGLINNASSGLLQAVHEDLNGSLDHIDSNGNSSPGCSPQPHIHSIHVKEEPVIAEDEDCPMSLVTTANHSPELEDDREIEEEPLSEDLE

[2] = biological target: T2, human FOXP2 (truncated, WT) (human, UniProt O15409 214-715); assay: MITOMI
T2 sequence: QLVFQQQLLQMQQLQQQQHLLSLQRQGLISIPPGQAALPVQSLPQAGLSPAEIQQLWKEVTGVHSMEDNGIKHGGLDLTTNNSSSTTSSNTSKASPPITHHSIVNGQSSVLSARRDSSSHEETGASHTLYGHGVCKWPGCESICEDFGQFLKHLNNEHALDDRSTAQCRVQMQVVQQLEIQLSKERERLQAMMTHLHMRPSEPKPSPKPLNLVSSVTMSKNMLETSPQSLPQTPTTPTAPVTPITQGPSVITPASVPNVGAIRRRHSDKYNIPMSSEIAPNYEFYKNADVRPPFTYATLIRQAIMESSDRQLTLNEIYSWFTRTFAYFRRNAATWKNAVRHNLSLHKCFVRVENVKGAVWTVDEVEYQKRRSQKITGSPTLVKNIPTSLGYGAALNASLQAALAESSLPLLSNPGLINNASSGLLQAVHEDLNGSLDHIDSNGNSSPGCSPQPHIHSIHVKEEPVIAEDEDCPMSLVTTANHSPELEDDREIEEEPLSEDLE

B1: oligonucleotide #175 (dsDNA)
DNA 1: CGCCTGTTACGGCATCAGGGCTTTGGTTTGGGCGGGCTGCTTGTTTACCAATTGTCTCCGGCGGTATGAC
DNA 2: GTCATACCGCCGGAGACAATTGGTAAACAAGCAGCCCGCCCAAACCAAAGCCCTGATGCCGTAACAGGCG
[1]
  binding result: binds
[2]
  binding result: binds
